Patent US20190389955A1 (HEMOGENYX PHARMACEUTICALS, published 2019)
Changes are numbered by the printed parent chain. Numbers in names are those of the source.

T1: human FLT3/FLK2 receptor protein (human, UniProt P36888 27-993)
T1 construct: whole, on cells; Cell-surface target in the flow cytometry experiments (REH cells and SP2/0-Hu-FLT3 cells); also called CD135; Hu-FLT3
T1 sequence (looked up): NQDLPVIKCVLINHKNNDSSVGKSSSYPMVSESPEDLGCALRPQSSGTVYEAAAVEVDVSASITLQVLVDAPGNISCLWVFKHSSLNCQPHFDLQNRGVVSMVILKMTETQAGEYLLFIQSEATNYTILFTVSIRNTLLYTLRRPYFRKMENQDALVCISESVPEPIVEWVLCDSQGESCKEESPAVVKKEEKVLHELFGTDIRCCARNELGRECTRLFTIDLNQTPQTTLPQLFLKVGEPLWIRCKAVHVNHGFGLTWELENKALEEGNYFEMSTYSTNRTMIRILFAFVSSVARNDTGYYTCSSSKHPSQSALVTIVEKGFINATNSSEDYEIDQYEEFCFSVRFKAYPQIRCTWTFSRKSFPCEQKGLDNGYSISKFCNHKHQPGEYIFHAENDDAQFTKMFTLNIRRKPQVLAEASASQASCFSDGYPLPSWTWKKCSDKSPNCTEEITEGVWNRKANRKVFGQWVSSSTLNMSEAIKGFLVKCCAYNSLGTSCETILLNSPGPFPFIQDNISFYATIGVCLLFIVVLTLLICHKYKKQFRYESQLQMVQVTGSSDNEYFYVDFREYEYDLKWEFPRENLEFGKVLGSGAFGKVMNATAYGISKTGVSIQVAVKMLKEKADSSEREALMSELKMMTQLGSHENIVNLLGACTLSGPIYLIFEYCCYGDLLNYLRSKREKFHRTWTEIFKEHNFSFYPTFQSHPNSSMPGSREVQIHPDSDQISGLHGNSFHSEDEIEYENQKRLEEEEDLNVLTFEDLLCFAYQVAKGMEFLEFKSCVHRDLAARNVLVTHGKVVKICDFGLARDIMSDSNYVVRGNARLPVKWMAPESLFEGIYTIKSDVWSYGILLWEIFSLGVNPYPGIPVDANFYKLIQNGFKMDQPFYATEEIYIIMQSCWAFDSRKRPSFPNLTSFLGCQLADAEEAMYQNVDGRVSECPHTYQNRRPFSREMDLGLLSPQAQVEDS

T2: FLT3/FLK2 antigen (as used for Table 6) (human, UniProt P36888 27-541, limits assumed)
T2 construct: also called human FLT3/FLK2 receptor protein
T2 sequence (looked up): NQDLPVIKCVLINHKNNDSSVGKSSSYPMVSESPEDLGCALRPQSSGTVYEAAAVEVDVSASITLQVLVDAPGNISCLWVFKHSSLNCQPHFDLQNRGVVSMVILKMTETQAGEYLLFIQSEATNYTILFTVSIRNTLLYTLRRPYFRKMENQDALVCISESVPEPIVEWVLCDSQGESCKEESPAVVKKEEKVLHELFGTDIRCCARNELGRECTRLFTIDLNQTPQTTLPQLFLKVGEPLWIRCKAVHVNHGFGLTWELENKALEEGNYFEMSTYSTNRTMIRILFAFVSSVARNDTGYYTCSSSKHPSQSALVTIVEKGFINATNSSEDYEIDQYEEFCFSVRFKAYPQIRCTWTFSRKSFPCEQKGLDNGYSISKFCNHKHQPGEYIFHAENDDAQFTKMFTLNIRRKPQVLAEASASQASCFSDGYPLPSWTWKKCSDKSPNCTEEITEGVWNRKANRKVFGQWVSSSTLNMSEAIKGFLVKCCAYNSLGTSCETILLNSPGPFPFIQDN

B1: MHC1694-1-18BA (antibody, V domains shown)
VH: QVTLKESGPGILQPSQTLSLTCSFSGFSLSTSTMGVGWIRQPSGKGLEWLLHILWNDSKYYNPALKSRLTISKDTYNKQVFLKIANVDTADTATYYCARIVYYSTYVGYFDVWGAGTTVTVSS
VL: DIQMTQSPSSLSASLGERVSLTCRASQEISGYLSWLQQKPDGTIKRLIYAASTLHSGVPKRFSGSRSGSDYSLTISRLESEDVADYYCLQYASYPFTFGSGTKLEIR
notes: Mouse hybridoma monoclonal antibody; also called Ab1-18New
B2: MHC1693-3-16HA (antibody, V domains shown)
VH: EVQLQQSGAELVRPGALVKLSCKGSGFNIKDYYIHWVKQRPEQGLEWIGRIDPENDITMYDPKFQGKASITADTSSNTAYLQLSSLTSEDTAVYYCARNGNFFAYWGQGTLVTVSA
VL: not shown
notes: Mouse hybridoma monoclonal antibody; also called Ab3-16HA
B3: MHC1696-2-8IA (antibody, V domains shown)
VH: EIQLQQSGPELVKPGASVKVSCKASGYSFIDYNMYWVKQSHGKSLEWIGYINPYNGGTSNNQKFKDKATLTVDKSSSTAFMHLNSLTSEDSAVYYCARGTTGDYWGQGTTLTVSS
VL: DTVLTQSPATLSVTPGDSVSLSCRASQSISNNLHWYQQKSHESPRLLIKYGFQSISGIPSRFSGSGSGTDFTLRINSVETEDFGMYFCQQTNSWPLTFGAGTKLELK
notes: Mouse hybridoma monoclonal antibody; also called A281A
B4: MHC1695-3-30A (antibody, V domains shown)
VH: QVTLKESGPGILQPSQTLSLTCSFSGFSLSTSHMGVGWIRQPSGKGLEWLLHILWNDSVYYNPALKSRLTISKDTYNKQVFLKIANVDTADTATYYCARIVYYGISYVGYFDVWGAGTTVTVSS
VL: B1 VL with H55N, K60R, R77S, V83F, R107K
notes: Mouse hybridoma monoclonal antibody
B5: MHC1692-1-23DA (antibody, V domains shown)
VH: B1 VH
VL: B1 VL
notes: Mouse hybridoma monoclonal antibody (detected with anti-mouse IgG); also called Ab1-23DA

Biological target: T1, human FLT3/FLK2 receptor protein
Test: flow cytometry titration on REH cells, MFI against antibody concentration; the box prints no unit, the axis is printed 'mg/ml', the text gives ng/ml; clone taken from the legend paragraph 65 (FIG. 5E: Ab1-18New)
Procedure: (§1) Specificity of the monoclonal antibodies was determined by evaluating their affinity to the FLT3/FLK2 antigen. To define affinity of the anti-human FLT3/FLK2 antibodies, an Effective Concentration (EC) curve was built using flow cytometry. Nine monoclonal antibody clones were used to stain human REH cells that endogenously express human FLT3/FLK2. The concentration of the clones ranged from 1 ng/ml (6.25 pM) to 10,000 ng/ml (62.5 nM). […] The sequences of the clones are shown below.

| EC50 | Binder |
| --- | --- |
| 0.0788 µg/mL | B1 |

Biological target: T1, human FLT3/FLK2 receptor protein
Test: flow cytometry, purified antibody on SP2/0 cells expressing human FLT3/FLK2; same table: unstained 6063, secondary Ab 9522, isotype 11518

| MFI | Binder |
| --- | --- |
| 206000 | B2 |
| 128000 | B3 |
| 151000 | B4 |
| 119000 | B5 |

Biological target: T1, human FLT3/FLK2 receptor protein
Test: flow cytometry, hybridoma supernatant on REH cells; same table: unstained 1292, secondary Ab alone 6905 (0.78%), isotype 13307 (12%)

| % POSITIVE CELLS | MFI (IgC FITC) | Binder |
| --- | --- | --- |
| 57% | 15200 | B2 |
| 30% | 11000 | B3 |
| 48% | 13000 | B4 |
| 49% | 13300 | B5 |
| 58% | 14700 | B1 |

Biological target: T1, human FLT3/FLK2 receptor protein
Test: flow cytometry titration on REH cells, MFI against antibody concentration; the box prints no unit, the axis is printed 'mg/ml', the text gives ng/ml
Procedure: as §1

| EC50 | Binder |
| --- | --- |
| 0.0902 µg/mL | B3 |
| 0.0701 µg/mL | B5 |

Biological target: T2, FLT3/FLK2 antigen (as used for Table 6)
Test: kinetic fit, method not stated (Table 6)

| Kd | koff | kon | Binder |
| --- | --- | --- | --- |
| 0.0503 nM | 0.000111 s⁻¹ | 2.21e+06 M⁻¹ s⁻¹ | B3 |
| 0.00576 nM | 1.42e-05 s⁻¹ | 2.46e+06 M⁻¹ s⁻¹ | B1 |

Biological target: T1, human FLT3/FLK2 receptor protein
Test: flow cytometry titration on REH cells; axis printed 'mg/ml', the text gives ng/ml
Procedure: as §1

| EC50 (read off the curve) | Binder |
| --- | --- |
| ~100 ng/mL | B3 |
| ~1000 ng/mL | B4 |
| ~60 ng/mL | B5 |
| ~80 ng/mL | B1 |
